Experimental data as given in article PMC4245193.

System: stable placental multi-protein complex SPC-1 (donor 1) (Homo sapiens (placenta, donor 1))
Test: tryptophan fluorescence quenching titration (Scatchard)
Conditions: 5' phosphate as printed (pT), 20 mM Tris-HCl pH 7.5, 150 mM NaCl, 0.3 mg/ml SPC, 25 C, excitation 283 nm, emission 338 nm

For TAGAAGATCAAA [12-mer ODN], the Kd (high-affinity site (Kd1)) was 0.036 µM and the Kd (low-affinity site (Kd2)) was 2.6 µM.
